# From IntAct's records for PubMed 21057455
# B1: Mediator of RNA polymerase II transcription subunit 13 (Saccharomyces cerevisiae), P38931 (parent)
# chain: MSSDASTYRLEDVLSSFYRVEKIKKINYHQYISKAQNDQWSIQMEFMLRKQDPKTLVALLSRDLWCFSINDDPVPTPPAIEHKPVSPDKIGTFTADYSKPNLPPHYALFLKALRRKIYINLALGSHNKLIQFGNACISLSGVPNYLVQLEPHLFVNGDLTVSLCAKNMGLVPMKEENLEESFLSKHALYLAPSGIRMHLAPASKQGYLITPPKHTELLLTTLSVSHGINLQNKKNLKWVAVVPDLGHLNGHTPTIASYLTPLLEAKKLVWPLHLIFAQPVADIENSTSGDPSEFHCLQDALDAIDDFIQLKQTAAYRTPGSSGVLSSNIAGTNPLSSDGAYTEQFQHYKNNSISSQPASYHSVQETNKISPKDFSPNFTGIDKLMLSPSDQFAPAFLNTPNNNINENELFNDRKQTTVSNDLENSPLKTELEANGRSLEKVNNSVSKTGSVDTLHNKEGTLEQREQNENLPSDKSDSMVDKELFGEDEDEDLFGDSNKSNSTNESNKSISDEITEDMFEMSDEEENNNNKSINKNNKEMHTDLGKDIPFFPSSEKPNIRTMSGTTKRLNGKRKYLDIPIDEMTLPTSPLYMDPGAPLPVETPRDRRKSVFAPLNFNPIIENNVDNKYKSGGKFSFSPLQKEEALNFDISMADLSSSEEEEDEEENGSSDEDLKSLNVRDDMKPSDNISTNTNIHEPQYINYSSIPSLQDSIIKQENFNSVNDANITSNKEGFNSIWKIPQNDIPQTESPLKTVDSSIQPIESNIKMTLEDNNVTSNPSEFTPNMVNSEISNLPKDKSGIPEFTPADPNLSFESSSSLPFLLRHMPLASIPDIFITPTPVVTISEKEQDILDLIAEQVVTDYNILGNLGIPKIAYRGVKDCQEGLITTTMLQLFSTFDRLNGNDTISKFYNMKQPYVFVKKHHELIKVKHDSQPFIKFLNFRPPNGIKNFKSLLLSSSFKEDCLSFAPTLSQTYINQELGFCELLKLTNEDPPGLMYLKAFDKNKLLLLAAQIVSYCSNNKNSIKNVPPILIILPLDNATLTELVDKANIFQVIKNEVCAKMPNIELYLKVIPMDFIRNVLVTVDQYVNVAISIYNMLPPKSVKFTHIAHTLPEKVNFRTMQQQQMQQQQQQQQQQQNNSTGSSSIIYYDSYIHLAYSRSVDKEWVFAALSDSYGQGSMTKTWYVGNSRGKFDDACNQIWNIALNLASKKFGKICLILTRLNGILPDDELMNWRRLSGRNIHLAVVCVDDNSKISFIDEDKLYPSFKPIYKDTRFGGRMDMTRLYDYEIRDIDQDIHGIVFQHPFPLAHSQHRCAIRSGALIKFKKCDGDTVWDKFAVNLLNCPHSDSTQLLETILEEFRNLAALNVWYGLSDGEDGHIPWHILAVKKMMNTLVHTRVKIANTSAATVHTATSSSIILSDK
# partner: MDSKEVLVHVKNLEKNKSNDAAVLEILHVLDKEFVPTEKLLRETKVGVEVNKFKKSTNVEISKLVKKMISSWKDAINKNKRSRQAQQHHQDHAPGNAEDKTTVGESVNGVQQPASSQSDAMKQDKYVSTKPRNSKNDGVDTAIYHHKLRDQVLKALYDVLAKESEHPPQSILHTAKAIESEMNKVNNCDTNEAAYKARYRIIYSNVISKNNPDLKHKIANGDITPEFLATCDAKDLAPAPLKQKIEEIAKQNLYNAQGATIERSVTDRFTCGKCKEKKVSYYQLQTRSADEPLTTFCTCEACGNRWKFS
# B2: SAGA complex subunit SPT8 (Saccharomyces cerevisiae), P38915 (parent)
# chain: MDEVDDILINNQVVDDEEDDEEMLSGLENDSKQDLEGNDDGGEDEEDDDDDDEDDDDDEDEREDDDEQEDDDGEDDAARMDKTATPTNEHQHDEQKAAAAGAGGAGDSGDAVTKIGSEDVKLSDVDGGVGSREASSSTHEASANGEVYEYYKHMLNAAQIADSYNIYPTAAIPIQTHVNALAVSRGLKYLFLGGSDGYIRKYDLLNTLEGKLSLTILQKHSLAESIQNAGILQSYWENEIPQKKSEMKLSANKTDYEPKVSPVHSLEVQSECLFILSGLQNGGITMQGVRYMEGSIAHYFKGRNGHTQIVNILRLNGQEDRFLSGSWDKRLLEWDLQTGDIVNEFKKSRSELSSLEMRPLYSSVDVSGNVNSGKENENADDDMDSLFGDEDEDEKQDAGNEPVETGDGSNGEENKEQISEESLNIVYDESVFMTSGLNGSVHIWDRRMTQSPALSLERGAGVPPWCLSACWGVDGDHVYAGRRNACVEQFDLKMPSKPIHNLKLPSISGPVSCVKAMPNNKHLLCASRDNIRLYNVEIAVDASNSTTKSSKVPFLIVPGHHGGIISNLYLDPTSRFIISTSGNRGWQGNSTDTTLIYDIDLE
# partner: B1 partner
# B3: Transcription elongation factor SPT6 (Saccharomyces cerevisiae), P23615 (parent)
# chain: MEETGDSKLVPRDEEEIVNDNDETKAPSEEEEGEDVFDSSEEDEDIDEDEDEARKVQEGFIVNDDDENEDPGTSISKKRRKHKRREREEDDRLSEDDLDLLMENAGVERTKASSSSGKFKRLKRVGDEGNAAESESDNVAASRQDSTSKLEDFFSEDEEEEESGLRNGRNNEYGRDEEDHENRNRTADKGGILDELDDFIEDDEFSDEDDETRQRRIQEKKLLREQSIKQPTQITGLSSDKIDEMYDIFGDGHDYDWALEIENEELENGNDNNEAEEEEIDEETGAIKSTKKKISLQDIYDLEDLKKNLMTEGDMKIRKTDIPERYQELRAGITDYGNMSSEDQELERNWIAEKISVDKNFDANYDLTEFKEAIGNAIKFITKENLEVPFIYAYRRNYISSREKDGFLLTEDDLWDIVSLDIEFHSLVNKKDYVQRFYAELHIDDPIVTEYFKNQNTASIAELNSLQDIYDYLEFKYANEINEMFINHTGKTGKKHLKNSSYEKFKASPLYQAVSDIGISAEDVGENISSQHQIHPPVDHPSSKPVEVIESILNANSGDLQVFTSNTKLAIDTVQKYYSLELSKNTKIREKVRSDFSKYYLADVVLTAKGKKEIQKGSLYEDIKYAINRTPMHFRRDPDVFLKMVEAESLNLLSVKLHMSSQAQYIEHLFQIALETTNTSDIAIEWNNFRKLAFNQAMDKIFQDISQEVKDNLTKNCQKLVAKTVRHKFMTKLDQAPFIPNVRDPKIPKILSLTCGQGRFGADAIIAVYVNRKGDFIRDYKIVDNPFDKTNPEKFEDTLDNIIQSCQPNAIGINGPNPKTQKFYKRLQEVLHKKQIVDSRGHTIPIIYVEDEVAIRYQNSERAAQEFPNKPPLVKYCIALARYMHSPLLEYANLTSEEVRSLSIHPHQNLLSSEQLSWALETAFVDIVNLVSVEVNKATDNNYYASALKYISGFGKRKAIDFLQSLQRLNEPLLARQQLITHNILHKTIFMNSAGFLYISWNEKRQKYEDLEHDQLDSTRIHPEDYHLATKVAADALEYDPDTIAEKEEQGTMSEFIELLREDPDRRAKLESLNLESYAEELEKNTGLRKLNNLNTIVLELLDGFEELRNDFHPLQGDEIFQSLTGESEKTFFKGSIIPVRVERFWHNDIICTTNSEVECVVNAQRHAGAQLRRPANEIYEIGKTYPAKVIYIDYANITAEVSLLDHDVKQQYVPISYSKDPSIWDLKQELEDAEEERKLMMAEARAKRTHRVINHPYYFPFNGRQAEDYLRSKERGEFVIRQSSRGDDHLVITWKLDKDLFQHIDIQELEKENPLALGKVLIVDNQKYNDLDQIIVEYLQNKVRLLNEMTSSEKFKSGTKKDVVKFIEDYSRVNPNKSVYYFSLNHDNPGWFYLMFKINANSKLYTWNVKLTNTGYFLVNYNYPSVIQLCNGFKTLLKSNSSKNRMNNYR
# partner: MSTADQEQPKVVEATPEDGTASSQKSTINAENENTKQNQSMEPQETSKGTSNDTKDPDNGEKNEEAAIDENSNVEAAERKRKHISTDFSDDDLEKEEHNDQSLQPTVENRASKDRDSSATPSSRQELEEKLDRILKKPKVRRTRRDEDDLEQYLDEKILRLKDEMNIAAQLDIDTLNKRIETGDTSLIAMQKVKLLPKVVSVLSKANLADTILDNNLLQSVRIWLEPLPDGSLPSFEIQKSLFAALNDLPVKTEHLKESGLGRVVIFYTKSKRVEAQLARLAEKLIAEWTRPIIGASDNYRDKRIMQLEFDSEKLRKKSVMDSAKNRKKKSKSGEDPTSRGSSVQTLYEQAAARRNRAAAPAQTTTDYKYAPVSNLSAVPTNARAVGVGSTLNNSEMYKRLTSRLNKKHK
# Variants of: B1
# Settings: with tfs2_yeast DST1, P07273
row,Variant,effect of a mutation on the interaction
1,F484A,decreasing interaction
2,L483A,decreasing interaction

# Variants of: B2
# Settings: with tfs2_yeast DST1, P07273
row,Variant,effect of a mutation on the interaction
1,F387A,disrupting interaction
2,L386A,disrupting interaction

# Variants of: B3
# Settings: with iws1_yeast SPN1, Q06505
row,Variant,effect of a mutation on the interaction
1,I248A,disrupting interaction
2,F249A,disrupting interaction
